Legend:
[1] = molecular target: H-2Kb/SIINFEKL pMHC complex on primary hepatocytes (mouse); test: cell-based or functional assay
[2] = molecular target: PD-L1 expressed by hepatocytes of C57BL/6 mice (mouse) (UniProt Q9EP73); test: cell-based or functional assay
UniProt Q9EP73, sequence (Q9EP73 19-290): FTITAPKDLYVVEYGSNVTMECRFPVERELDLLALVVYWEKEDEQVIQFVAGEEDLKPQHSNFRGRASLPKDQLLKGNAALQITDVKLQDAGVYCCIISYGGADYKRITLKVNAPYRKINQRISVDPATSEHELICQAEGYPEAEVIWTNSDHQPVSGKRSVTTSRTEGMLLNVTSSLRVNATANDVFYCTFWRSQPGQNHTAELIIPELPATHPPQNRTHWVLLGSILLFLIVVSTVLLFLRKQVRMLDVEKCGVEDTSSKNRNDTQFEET

Substance “T cell receptor of OT-I cells (transgenic CD8+ T cells specific for H-2Kb/SIINFEKL) (TCR)” has a CD69+ OT-I cells after 24 hr co-culture with hepatocytes incubated with pGal-OVA alone [1] of 17%, a CD69+ OT-I cells after 24 hr co-culture with hepatocytes treated with pGal-OVA and MG132 [1] of 3.98% and a CD69+ OT-I cells after 24 hr co-culture with hepatocytes treated with pGal-OVA and chloroquine [1] of 7.38%.
With “rat IgG isotype control Ab (Abcam) (antibody)” the frequency of CD45.1+ OT-I cells among viable CD3+CD8+ lymphocytes in dLNs, mice given hepatocytes treated with pGal-OVA and isotype control antibody [2] was 0.2%, the frequency of dLN IFN-γ+ OT-I cells, pGal-OVA and isotype control antibody-treated hepatocytes [2] was 29.2% and the frequency of dLN IL-2+ OT-I cells, pGal-OVA and isotype control antibody-treated hepatocytes [2] was 4.21%.
Substance “αPD-L1 blocking Ab (BioxCell, clone 10F.9G2) (antibody)” has a frequency of CD45.1+ OT-I cells among viable CD3+CD8+ lymphocytes in dLNs, mice given pGal-OVA- and αPD-L1-treated hepatocytes [2] of 0.45%, a frequency of IFN-γ+ OT-I cells after OVA/LPS challenge, αPD-L1-treated hepatocytes [2] of 47.1% and a frequency of IL-2+ OT-I cells after OVA/LPS challenge, αPD-L1-treated hepatocytes [2] of 7.53%.

Reference: patent US20220211826A1
